T1: CD5 on human T cells (autologous and allogeneic Pan-T cells) and on the T-ALL cell line CCRF-CEM (human, UniProt P06127 25-495)
T1 sequence (looked up): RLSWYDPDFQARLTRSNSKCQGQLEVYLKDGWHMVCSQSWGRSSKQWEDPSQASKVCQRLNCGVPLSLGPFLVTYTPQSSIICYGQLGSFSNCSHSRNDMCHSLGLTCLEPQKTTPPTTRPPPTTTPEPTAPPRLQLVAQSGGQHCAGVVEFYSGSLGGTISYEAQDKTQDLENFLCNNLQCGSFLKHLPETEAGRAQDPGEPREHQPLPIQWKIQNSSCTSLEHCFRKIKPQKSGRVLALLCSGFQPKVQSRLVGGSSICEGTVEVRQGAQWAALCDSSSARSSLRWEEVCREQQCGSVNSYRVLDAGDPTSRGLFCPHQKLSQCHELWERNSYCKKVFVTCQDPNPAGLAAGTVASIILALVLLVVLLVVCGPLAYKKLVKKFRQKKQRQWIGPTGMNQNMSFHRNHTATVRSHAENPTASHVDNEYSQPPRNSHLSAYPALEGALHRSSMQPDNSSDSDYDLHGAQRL

B1: CD33 CAR CAR33-1, construct S011 (other)
chain: DIQMTQSPSSLSASVGDRVTITCRASESVDNYGISFMNWFQQKPGKAPKLLIYAASNQGSGVPSRFSGSGSGTDFTLTISSLQPDDFATYYCQQSKEVPWTFGQGTKVEIKGGGGSGGGGSGGGGSQVQLVQSGAEVKKPGSSVKVSCKASGYTFTDYNMHWVRQAPGQGLEWIGYIYPYNGGTGYNQKFKSKATITADESTNTAYMELSSLRSEDTAVYYCARGRPAMDYWGQGTLVTVSSASTTTPAPRPPTPAPTIASQPLSLRPEACRPAAGGAVHTRGLDFACDIYIWAPLAGTCGVLLLSLVITLYCKRGRKKLLYIFKQPFMRPVQTTQEEDGCSCRFPEEEEGGCELRVKFSRSADAPAYKQGQNQLYNELNLGRREEYDVLDKRRGRDPEMGGKPRRKNPQEGLYNELQKDKMAEAYSEIGMKGERRRGKGHDGLYQGLSTATKDTYDALHMQALPPR
notes: Chimeric antigen receptor on T cells
B2: CD33 CAR CAR33-4, construct S014 (other)
chain: QVQLQQPGAEVVKPGASVKMSCKASGYTFTSYYIHWIKQTPGQGLEWVGVIYPGNDDISYNQKFQGKATLTADKSSTTAYMQLSSLTSEDSAVYYCAREVRLRYFDVWGQGTTVTVSSGGGGSGGGGSGGGGSEIVLTQSPGSLAVSPGERVTMSCKSSQSVFFSSSQKNYLAWYQQIPGQSPRLLIYWASTRESGVPDRFTGSGSGTDFTLTISSVQPEDLAIYYCHQYLSSRTFGQGTKLEIKRASTTTPAPRPPTPAPTIASQPLSLRPEACRPAAGGAVHTRGLDFACDIYIWAPLAGTCGVLLLSLVITLYCKRGRKKLLYIFKQPFMRPVQTTQEEDGCSCRFPEEEEGGCELRVKFSRSADAPAYKQGQNQLYNELNLGRREEYDVLDKRRGRDPEMGGKPRRKNPQEGLYNELQKDKMAEAYSEIGMKGERRRGKGHDGLYQGLSTATKDTYDALHMQALPPR
notes: as for B1
B3: CD33 CAR CAR33-6, construct S016 (other)
chain: QVQLQQPGAEVVKPGASVKMSCKASGYTFTSYYIHWIKQTPGQGLEWVGVIYPGNDDISYNQKFKGKATLTADKSSTTAYMQLSSLTSEDSAVYYCAREVRLRYFDVWGAGTTVTVSSGGGGSGGGGSGGGGSNIMLTQSPSSLAVSAGEKVTMSCKSSQSVFFSSSQKNYLAWYQQIPGQSPKLLIYWASTRESGVPDRFTGSGSGTDFTLTISSVQSEDLAIYYCHQYLSSRTFGGGTKLEIKRASTTTPAPRPPTPAPTIASQPLSLRPEACRPAAGGAVHTRGLDFACDIYIWAPLAGTCGVLLLSLVITLYCKRGRKKLLYIFKQPFMRPVQTTQEEDGCSCRFPEEEEGGCELRVKFSRSADAPAYKQGQNQLYNELNLGRREEYDVLDKRRGRDPEMGGKPRRKNPQEGLYNELQKDKMAEAYSEIGMKGERRRGKGHDGLYQGLSTATKDTYDALHMQALPPR
notes: as for B1
B4: CD5/CD33 Dual-CAR, construct S043 (other)
chain: QVQLVQSGAEVKKPGSSVKVSCKASGYTFTDYNMHWVRQAPGQGLEWIGYIYPYNGGTGYNQKFKSKATITADESTNTAYMELSSLRSEDTAVYYCARGRPAMDYWGQGTLVTVSSGGGGSDIQMTQSPSSLSASVGDRVTITCRASQDINSYLSWFQQKPGKAPKTLIYRANRLESGVPSRFSGSGSGTDYTLTISSLQYEDFGIYYCQQYDESPWTFGGGTKLEIKGSTSGSGKPGSGEGSTKGEIQLVQSGGGLVKPGGSVRISCAASGYTFTNYGMNWVRQAPGKGLEWMGWINTHTGEPTYADSFKGRFTFSLDDSKNTAYLQINSLRAEDTAVYFCTRRGYDWYFDVWGQGTTVTVSSGGGGSDIQMTQSPSSLSASVGDRVTITCRASESVDNYGISFMNWFQQKPGKAPKLLIYAASNQGSGVPSRFSGSGSGTDFTLTISSLQPDDFATYYCQQSKEVPWTFGQGTKVEIKASTTTPAPRPPTPAPTIASQPLSLRPEACRPAAGGAVHTRGLDFACDIYIWAPLAGTCGVLLLSLVITLYCKRGRKKLLYIFKQPFMRPVQTTQEEDGCSCRFPEEEEGGCELRVKFSRSADAPAYKQGQNQLYNELNLGRREEYDVLDKRRGRDPEMGGKPRRKNPQEGLYNELQKDKMAEAYSEIGMKGERRRGKGHDGLYQGLSTATKDTYDALHMQALPPR
B5: CD5/CD33 Dual-CAR, construct S049 (other)
chain: DIQMTQSPSSLSASVGDRVTITCRASESVDNYGISFMNWFQQKPGKAPKLLIYAASNQGSGVPSRFSGSGSGTDFTLTISSLQPDDFATYYCQQSKEVPWTFGQGTKVEIKGGGGSGGGGSGGGGSQVQLVQSGAEVKKPGSSVKVSCKASGYTFTDYNMHWVRQAPGQGLEWIGYIYPYNGGTGYNQKFKSKATITADESTNTAYMELSSLRSEDTAVYYCARGRPAMDYWGQGTLVTVSSASTTTPAPRPPTPAPTIASQPLSLRPEACRPAAGGAVHTRGLDFACDIYIWAPLAGTCGVLLLSLVITLYCKRGRKKLLYIFKQPFMRPVQTTQEEDGCSCRFPEEEEGGCELRVKFSRSADAPAYKQGQNQLYNELNLGRREEYDVLDKRRGRDPEMGGKPRRKNPQEGLYNELQKDKMAEAYSEIGMKGERRRGKGHDGLYQGLSTATKDTYDALHMQALPPRGSGATNFSLLKQAGDVEENPGPMALPVTALLLPLALLLHAARPDIQMTQSPSSLSASVGDRVTITCRASQDINSYLSWFQQKPGKAPKTLIYRANRLESGVPSRFSGSGSGTDYTLTISSLQYEDFGIYYCQQYDESPWTFGGGTKLEIKGGGGSGGGGSGGGGSEIQLVQSGGGLVKPGGSVRISCAASGYTFTNYGMNWVRQAPGKGLEWMGWINTHTGEPTYADSFKGRFTFSLDDSKNTAYLQINSLRAEDTAVYFCTRRGYDWYFDVWGQGTTVTVSSSGTTTPAPRPPTPAPTIASQPLSLRPEACRPAAGGAVHTRGLDFACDIYIWAPLAGTCGVLLLSLVITLYCKRGRKKLLYIFKQPFMRPVQTTQEEDGCSCRFPEEEEGGCELRVKFSRSADAPAYKQGQNQLYNELNLGRREEYDVLDKRRGRDPEMGGKPRRKNPQEGLYNELQKDKMAEAYSEIGMKGERRRGKGHDGLYQGLSTATKDTYDALHMQALPPRFE
B6: CD5/CD33 Dual-CAR, construct S048 (other)
chain: DIQMTQSPSSLSASVGDRVTITCRASESVDNYGISFMNWFQQKPGKAPKLLIYAASNQGSGVPSRFSGSGSGTDFTLTISSLQPDDFATYYCQQSKEVPWTFGQGTKVEIKGGGGSGGGGSGGGGSQVQLVQSGAEVKKPGSSVKVSCKASGYTFTDYNMHWVRQAPGQGLEWIGYIYPYNGGTGYNQKFKSKATITADESTNTAYMELSSLRSEDTAVYYCARGRPAMDYWGQGTLVTVSSASTTTPAPRPPTPAPTIASQPLSLRPEACRPAAGGAVHTRGLDFACDIYIWAPLAGTCGVLLLSLVITLYCKRGRKKLLYIFKQPFMRPVQTTQEEDGCSCRFPEEEEGGCELRVKFSRSADAPAYKQGQNQLYNELNLGRREEYDVLDKRRGRDPEMGGKPRRKNPQEGLYNELQKDKMAEAYSEIGMKGERRRGKGHDGLYQGLSTATKDTYDALHMQALPPRGSGATNFSLLKQAGDVEENPGPMALPVTALLLPLALLLHAARPDIKMTQSPSSMYASLGERVTITCKASQDINSYLSWFHHKPGKSPKTLIYRANRLVDGVPSRFSGSGSGQDYSLTISSLDYEDMGIYYCQQYDESPWTFGGGTKLEMKGGGGSGGGGSGGGGSNIQLVQSGPELKKPGETVKISCKASGYTFTNYGMNWVKQAPGKGLRWMGWINTHTGEPTYADDFKGRFAFSLETSASTAYLQINNLKNEDTATYFCTRRGYDWYFDVWGAGTTVTVSSSGTTTPAPRPPTPAPTIASQPLSLRPEACRPAAGGAVHTRGLDFACDIYIWAPLAGTCGVLLLSLVITLYCKRGRKKLLYIFKQPFMRPVQTTQEEDGCSCRFPEEEEGGCELRVKFSRSADAPAYKQGQNQLYNELNLGRREEYDVLDKRRGRDPEMGGKPRRKNPQEGLYNELQKDKMAEAYSEIGMKGERRRGKGHDGLYQGLSTATKDTYDALHMQALPPRFE

biological target: T2, CD33 human protein-PE (Sino Biological, 12238-HCCH_P) (human, UniProt P20138 18-259, PE label); assay: flow cytometry; CAR-T cells stained with CD33 human protein-PE
T2 construct: Bought staining reagent; also called CD33 antigen
T2 sequence (P20138 18-259 limits assumed): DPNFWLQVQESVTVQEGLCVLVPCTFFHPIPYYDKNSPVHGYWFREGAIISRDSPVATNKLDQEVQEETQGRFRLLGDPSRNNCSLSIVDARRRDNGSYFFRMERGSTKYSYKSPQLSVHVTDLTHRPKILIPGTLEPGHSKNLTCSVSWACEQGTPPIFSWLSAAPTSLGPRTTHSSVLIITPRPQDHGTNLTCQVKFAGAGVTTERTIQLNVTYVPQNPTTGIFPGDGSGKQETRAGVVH
Experimental: CD3 and CD5 are stained with a CD3-FITC antibody (BD Biosciences, #555339) and a CD5-APC antibody (BD Biosciences, #555355) for 30 minutes at R.T. in the dark. CAR5 surface expression is detected by staining with Human CD5 Protein, HisTag (AcroBiosystems, Cat #CD5-H52H5) for 1 hour at R.T., washed and then incubated with His-APC antibody (R&D Systems, IC050A) for 30 minutes at R.T. in the dark. CAR33 expression is stained with CD33 human protein-PE (Sino Biological, 12238-HCCH_P) for 1 hour at R.T. All the staining is performed at 1:10 dilutions. DAPI (Thermo Scientific, Cat #BV-421, 1:5000) is used to stain dead cells before running by the Attune NxT Flow Cytometer (Thermo Fisher Scientific). Data is further analyzed by either using Attune NxT flow software or FlowJo software.

Binder	binding result
B1	binds
B2	binds
B3	binds

biological target: T1, CD5 on human T cells (autologous and …); assay: cell-based or functional assay

Binder	elimination of CCRF-CEM cells after 18 hours (luciferase-based killing assay) [%]
B4	~100
B5	~100
B6	~100

— US20240000838A1 (SIMCERE INNOVATION, published 2024)
